Results published in paper PMC5624674.

B1: unnamed (parent)
chain 1: MKTLPVLPGQAASSRPSPVEIWQILLSRLLDQHYGLTLNDTPFADERVIEQHIEAGISLCDAVNFLVEKYALVRTDQPGFSACTRSQLINSIDILRARRATGLMTRDNYRTVNNITLGKYPEAK
chain 2: MFEPMELTNDAVIKVIGVGGGGGNAVEHMVRERIEGVEFFAVNTDAQALRKTAVGQTIQIGSGITKGLGAGANPEVGRNAADEDRDALRAALEGADMVFIAAGMGGGTGTGAAPVVAEVAKDLGILTVAVVTKPFNFEGKKRMAFAEQGITELSKHVDSLITIPNDKLLKVLGRGISLLDAFGAANDVLKGAVQGIAELITRPGLMNVDFADVRTVMSEMGYAMMGSGVASGEDRAEEAAEMAISSPLLEDIDLSGARGVLVNITAGFDLRLDEFETVGNTIRAFASDNATVVIGTSLDPDMNDELRVTVVATGIGMDKRPEITLVTNKQVQQPVMDRYQQHGMAPLTQEQKPVAKVVNDNAPQTAKEPDYLDIPAFLRKQAD
B2: α-FtsZ fusion protein (wild-type E. coli FtsZ) [E. coli] / α-FtsZ fusion protein (wild-type E. coli FtsZ) [E. coli] (parent)
chain 1: B1 chain 2
chain 2: B1 chain 2
B3: unnamed (parent)
chain 1: B1 chain 1
chain 2: MLKKFRGMFSNDLSIDLGTANTLIYVKGQGIVLNEPSVVAIRQDRAGSPKSVAAVGHDAKQMLGRTPGNIAAIRPMKDGVIADFFVTEKMLQHFIKQVHSNSFMRPSPRVLVCVPVGATQVERRAIRESAQGAGAREVFLIEEPMAAAIGAGLPVSEATGSMVVDIGGGTTEVAVISLNGVVYSSSVRIGGDRFDEAIINYVRRNYGSLIGEATAERIKHEIGSAYPGDEVREIEVRGRNLAEGVPRGFTLNSNEILEALQEPLTGIVSAVMVALEQCPPELASDISERGMVLTGGGALLRNLDRLLMEETGIPVVVAEDPLTCVARGGGKALEMIDMHGGDLFSEE

Variants of: B1
Assay: bacterial two-hybrid β-galactosidase assay
Conditions: with partner chain of the complex shown; 100 μM IPTG; parent: 2e+03; read off a plot
Work on chain 2 MFEPMELTNDAVIKVIGVGGGGGNAVEHMVRERIEGVEFFAVNTDAQALRKTAVGQTIQIGSGITKGLGAGANPEVGRNAADEDRDALRAALEGADMVFIAAGMGGGTGTGAAPVVAEVAKDLGILTVAVVTKPFNFEGKKRMAFAEQGITELSKHVDSLITIPNDKLLKVLGRGISLLDASGAANDVLKGAVQGIAELITRPGLMNVDFADVRTVMSEMGYAMMGSGVASGEDRAEEAAEMAISSPLLEDIDLSGARGVLVNITAGFDLRLDEFETVGNTIRAFASDNATVVIGTSLDPDMNDELRVTVVATGIGMDKRPEITLVTNKQVQQPVMDRYQQHGMAPLTQEQKPVAKVVNDNAPQTAKEPDYLDIPAFLRKQAD [chain 2 F182S] yielded a response of 260 Miller Units.
For chain 2 MFEPMELTNDAVIKVIGVGGGGGNAVEHMVRERIEGVEFFAVNTDAQALRKTAVGQTIQIGSGITKGLGAGANPEVGRNAADEDRDALRAALEGADMVFIAAGMGGGTGTGAAPVVAEVAKDLGILTVAVVTKPFNFEGKKRMAFAEQGITELSKHVDSLITIPNDKLLKVLGRGISLRDAFGAANDVLKGAVQGIAELITRPGLMNVDFADVRTVMSEMGYAMMGSGVASGEDRAEEAAEMAISSPLLEDIDLSGARGVLVNITAGFDLRLDEFETVGNTIRAFASDNATVVIGTSLDPDMNDELRVTVVATGIGMDKRPEITLVTNKQVQQPVMDRYQQHGMAPLTQEQKPVAKVVNDNAPQTAKEPDYLDIPAFLRKQAD [chain 2 L179R], the response was 250 Miller Units.

Same assay, conditions: with partner chain of the complex shown; 25 μM IPTG; parent: 1.5e+03; read off a plot
In the case of chain 1 MKTLPVLPGQAASSCPSPVEIWQILLSRLLDQHYGLTLNDTPFADERVIEQHIEAGISLCDAVNFLVEKYALVRTDQPGFSACTRSQLINSIDILRARRATGLMTRDNYRTVNNITLGKYPEAK [chain 1 R15C], the response is reported as 1300 Miller Units.
In the case of chain 1 MKTLPVLPGQAASSRPSPVEIWQILLSRLLDQHYGLTLNDTPFADERVIEQHIEAGISLCDAVNSLVEKYALVRTDQPGFSACTRSQLINSIDILRARRATGLMTRDNYRTVNNITLGKYPEAK [chain 1 F65S], the response is reported as 75 Miller Units.

Variants of: B2
Assay: bacterial two-hybrid β-galactosidase assay
Conditions: with α-FtsZ fusion protein (wild-type E. coli FtsZ) [E. coli]; 100 μM IPTG; parent: 320; read off a plot
Variant chain 1 MFEPMELTNDAVIKVIGVGGGGGNAVEHMVRERIEGVEFFAVNTDAQALRKTAVGQTIQIGSGITKGLGAGANPEVGRNAADEDRDALRAALEGADMVFIAAGMGGGTGTGAAPVVAEVAKDLGILTVAVVTKPFNFEGKKRMAFAEQGITELSKHVDSLITIPNDKLLKVLGRGISLRDAFGAANDVLKGAVQGIAELITRPGLMNVDFADVRTVMSEMGYAMMGSGVASGEDRAEEAAEMAISSPLLEDIDLSGARGVLVNITAGFDLRLDEFETVGNTIRAFASDNATVVIGTSLDPDMNDELRVTVVATGIGMDKRPEITLVTNKQVQQPVMDRYQQHGMAPLTQEQKPVAKVVNDNAPQTAKEPDYLDIPAFLRKQAD [chain 1 L179R] has a response of 250 Miller Units.
For chain 1 MFEPMELTNDAVIKVIGVGGGGGNAVEHMVRERIEGVEFFAVNTDAQALRKTAVGQTIQIGSGITKGLGAGANPEVGRNAADEDRDALRAALEGADMVFIAAGMGGGTGTGAAPVVAEVAKDLGILTVAVVTKPFNFEGKKRMAFAEQGITELSKHVDSLITIPNDKLLKVLGRGISLLDASGAANDVLKGAVQGIAELITRPGLMNVDFADVRTVMSEMGYAMMGSGVASGEDRAEEAAEMAISSPLLEDIDLSGARGVLVNITAGFDLRLDEFETVGNTIRAFASDNATVVIGTSLDPDMNDELRVTVVATGIGMDKRPEITLVTNKQVQQPVMDRYQQHGMAPLTQEQKPVAKVVNDNAPQTAKEPDYLDIPAFLRKQAD [chain 1 F182S], the response was 260 Miller Units.

Variants of: B3
Assay: bacterial two-hybrid β-galactosidase assay
Conditions: with partner chain of the complex shown; 100 μM IPTG; parent: 310; read off a plot
Work on chain 1 F65S yielded a response of 330 Miller Units.
chain 1 R15C gave a response of 130 Miller Units.
